Laboratory results published in patent US20060088847.

Chain of GST-B23 protein, P06748 (P06748 whole entry): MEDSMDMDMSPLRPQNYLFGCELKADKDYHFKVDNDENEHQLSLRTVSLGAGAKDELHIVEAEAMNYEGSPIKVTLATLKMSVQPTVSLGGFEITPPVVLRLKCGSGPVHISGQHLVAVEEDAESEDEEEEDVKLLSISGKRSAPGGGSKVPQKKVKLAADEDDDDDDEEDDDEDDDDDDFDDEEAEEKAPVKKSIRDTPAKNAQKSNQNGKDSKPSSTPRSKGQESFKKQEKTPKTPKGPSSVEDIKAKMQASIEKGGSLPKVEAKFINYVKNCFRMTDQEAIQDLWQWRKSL
Chain of Flag-p53, P04637 (P04637 whole entry, looked up): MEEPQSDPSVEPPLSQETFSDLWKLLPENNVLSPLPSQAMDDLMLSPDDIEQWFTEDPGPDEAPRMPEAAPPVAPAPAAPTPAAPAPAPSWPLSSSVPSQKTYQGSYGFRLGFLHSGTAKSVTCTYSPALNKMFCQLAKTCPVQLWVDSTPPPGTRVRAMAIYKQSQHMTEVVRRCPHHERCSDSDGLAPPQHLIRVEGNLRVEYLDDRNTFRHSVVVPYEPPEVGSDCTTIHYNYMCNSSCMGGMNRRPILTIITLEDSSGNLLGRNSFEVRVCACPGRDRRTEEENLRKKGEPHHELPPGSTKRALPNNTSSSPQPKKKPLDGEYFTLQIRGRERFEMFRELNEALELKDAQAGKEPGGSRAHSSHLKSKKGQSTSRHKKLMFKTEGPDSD

B1: GST-ARF-BP1 (3760-4374) (protein)
chain: IQAAVRQLEAEADAIIQMVREGQRARRQQQAATSESSQSEASVRREESPMDVDQPSPSAQDTQSIASDGTPQGEKEKEERPPELPLLSEQLSLDELWDMLGECLKELEESHDQHAVLVLQPAVEAFFLVHATERESKPPVRDTRESQLAHIKDEPPPLSPAPLTPATPSSLDPFFSREPSSMHISSSLPPDTQKFLRFAETHRTVLNQILRQSTTHLADGPFAVLVDYIRVLDFDVKRKYFRQELERLDEGLRKEDMAVHVRRDHVFEDSYRELHRKSPEEMKNRLYIVFEGEEGQDAGGLLREWYMIISREMFNPMYALFRTSPGDRVTYTINPSSHCNPNHLSYFKFVGRIVAKAVYDNRLLECYFTRSFYKHILGKSVRYTDMESEDYHFYQGLVYLLENDVSTLGYDLTFSTEVQEFGVCEVRDLKPNGANILVTEENKKEYVHLVCQMRMTGAIRKQLAAFLEGFYEIIPKRLISIFTEQELELLISGLPTIDIDDLKSNTEYHKYQSNSIQIQWFWRALRSFDQADRAKFLQFVTGTSKVPLQGFAALEGMNGIQKFQIHRDDRSTDRLPSAHTCFNQLDLPAYESFEKLRHMLLLAIQECSEGFGLA
B1 was tested, and the “p53 ubiquitination, in vitro ubiquitination assay with purified components” value (Flag-p53, P04637) was “high levels of ubiquitinated p53 were generated by ARF-BP1 (lane 2)” and the “NPM/B23 ubiquitination, in vitro ubiquitination assay” value (GST-B23 protein, P06748) was “no significant ubiquitination of NPM/B23 was detected by Western blot analysis with the anti-NPM/B23 antibody”.
